Here are results for 14 molecules from US20250361274A1, “PEPTIDE AND PEPTIDE-CONTAINING AGENT” (PEPTIDREAM INC., priority 2022, published 2025).

Numbered stars: 1 amine (or outer) side, 2 acyl side, 3 side chain; on linkers, the order of the positions; unused ones are H or OH. Bridge positions count the residues as written; N and C are the ends. Square brackets hold non-standard residues; d marks the D form. Ends that are not written are not given here. Peptide text beside a SMILES is read from it. KCOpipzaa = N6-(4-(carboxymethyl)piperazine-1-carbonyl)-L-lysine, O=C(NCCCC[C@H](N[*:1])C(=O)[*:2])N1CCN(CC(=O)[*:3])CC1; Bph3C = (S)-2-amino-3-(3'-chloro-[1,1'-biphenyl]-4-yl)propanoic acid, O=C([C@H](Cc1ccc(-c2cccc(Cl)c2)cc1)N[*:1])[*:2]; Bph3F = (S)-2-amino-3-(3'-fluoro-[1,1'-biphenyl]-4-yl)propanoic acid, O=C([C@H](Cc1ccc(-c2cccc(F)c2)cc1)N[*:1])[*:2]; Cha4tH = (S)-2-amino-3-((1r,4S)-4-hydroxycyclohexyl)propanoic acid, O=C([C@H](C[C@H]1CC[C@H](O[*:3])CC1)N[*:1])[*:2]; F4aao = (S)-2-amino-3-(4-(carboxymethoxy)phenyl)propanoic acid, O=C([C@H](Cc1ccc(OCC(=O)[*:3])cc1)N[*:1])[*:2]; 3Pal(6-Ph) = N[C@@H](Cc1ccc(-c2ccccc2)nc1)C(=O)O; Phe(4-COOH) = N[C@@H](Cc1ccc(C(=O)O)cc1)C(=O)O; NMePhe(4-Me) = CN[C@@H](Cc1ccc(C)cc1)C(=O)O; Bip = N[C@@H](Cc1ccc(-c2ccccc2)cc1)C(=O)O; Pro(cis-4-F) = O=C(O)[C@@H]1C[C@H](F)CN1; cisHyp = O=C(O)[C@@H]1C[C@H](O)CN1; Hyp = O=C(O)[C@@H]1C[C@@H](O)CN1; NMeF = CN[C@@H](Cc1ccccc1)C(=O)O; 4Pal = N[C@@H](Cc1ccncc1)C(=O)O; Aad = N[C@@H](CCCC(=O)O)C(=O)O; Cha = N[C@@H](CC1CCCCC1)C(=O)O; Cba = N[C@@H](CC1CCC1)C(=O)O; βAla = NCCC(=O)O

The target in one assay is T1, BMP4 (Homo sapiens, UniProt P12644).
T1 sequence (P12644 293-408): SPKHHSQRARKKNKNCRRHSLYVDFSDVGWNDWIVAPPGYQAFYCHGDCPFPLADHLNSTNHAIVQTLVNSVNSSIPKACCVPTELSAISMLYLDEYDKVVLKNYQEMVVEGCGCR
Kind of assay: BMP4 signal transduction inhibitory activity: SMAD1 phosphorylation by BMP4 stimulus, AlphaLISA SureFire, A549 cells. In kind it is cell-based. Particulars: for aLISA BMP4: A549 cells, peptides of Synthesis 2; for aLIZA BMP4 (0.2 nM) % Inh: SMAD1 phosphorylation by BMP4 stimulus; for aLISA BMP4 (0.2 nM) % inh: peptide conc. in assay 0.2, 2, 20 nM. (Alpha assays give light when donor and acceptor beads are brought close together.)

Another assay has as its target T2, BMP7 (Homo sapiens, UniProt P18075).
T2 sequence (P18075 293-431): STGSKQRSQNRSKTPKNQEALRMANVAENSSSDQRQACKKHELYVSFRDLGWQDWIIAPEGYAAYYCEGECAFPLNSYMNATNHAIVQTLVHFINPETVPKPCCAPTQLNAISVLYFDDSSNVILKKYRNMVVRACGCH
Kind of assay: BMP7 signal transduction inhibitory activity: SMAD1 phosphorylation by BMP7 stimulus, A549 cells. The following applies: for aLISA BMP7: A549 cells, peptides of Synthesis 2; for aLIZA BMP7 (10 nM) % Inh: SMAD1 phosphorylation by BMP7 stimulus; for aLISA BMP7 (10 nM) % inh: peptide conc. in assay 1, 10, 100 nM. In kind it is cell-based. The method in brief: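 A549 cells were stimulated with 10 nM BMP7, and peptide inhibition of signalling was measured as SMAD1 phosphorylation. Peptides were tested at three concentrations, in sets ranging from 1–100 nM to 100–1,000 nM, or as eight-point 1/3 dilution series starting at 100 nM or 1,000 nM.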

The mark [1] stands for this setting: BMP4 0.2 nM stimulus, peptide conc. in assay 0.02, 0.2, 2 nM, class symbols.
Setting [2] is: BMP7 10 nM stimulus, peptide conc. in assay 10, 100, 1000 nM, class symbols.
The mark [3] stands for this setting: inhibition of SMAD1 phosphorylation by BMP4 stimulus, classes A-C, ND.
Where [4] appears, read: inhibition of SMAD1 phosphorylation by BMP7 stimulus, classes A-D, ND.
Where [5] appears, read: peptide conc. in assay 0.02, 0.2, 2 nM, class symbols.
Where [6] appears, read: peptide conc. in assay 10, 100, 1000 nM, class symbols.
Where [7] appears, read: SMAD1 phosphorylation, BMP4 0.2 nM.
Where [8] appears, read: SMAD1 phosphorylation, BMP7 10 nM.
Setting [9] is: BMP4 0.2 nM, peptide 0.02, 0.2, 2 nM, Table 6.
The mark [10] stands for this setting: BMP7 10 nM, peptide 10, 100, 1000 nM, Table 6.

“270 (QRV[F4aao]VDR[3Pal(6-Ph)]SYV[Bip][4Pal][Phe(4-COOH)][Phe(4-COOH)]SCG-NH2; not fully specified) [compound 270]”: the “aLIZA BMP4 (0.2 nM) % inh” value in the assay with BMP4 (setting [1]) is “C (showed less than 30% of inhibitory activity in 0.2 nM-addition zone and showed 30% or more of inhibitory activity in 2 nM-addition zone)”. Besides, the “aLIZA BMP7 (10 nM) % inh” value with BMP7 (setting [2]) is “ND (the inhibitory activity was less than 30% at the maximum concentration evaluated)”.

As for “96 ({CH2CO}-ERVYVDR[3Pal(6-Ph)]SYP[Bip]Y[Phe(4-COOH)][Phe(4-COOH)]SC[βAla][dE]-OH; thioether N-17; not fully specified) [compound 96]”, the “aLISA BMP4” value with BMP4 (setting [3]) is “A (showed an inhibitory activity of 50% or more in a zone to which the peptide was added to in an amount of 0.2 nM)”. The “aLISA BMP7” value with BMP7 (setting [4]) is “C (showed less than 50% of inhibitory activity in 10 nM-addition zone and showed 50% or more of inhibitory activity in 100 nM-addition zone)”.

In the case of “257 (TRVYVDR[3Pal(6-Ph)]SYV[Bip]Y[Phe(4-COOH)][Phe(4-COOH)]SCG-NH2; not fully specified) [compound 257]”, the “aLIZA BMP4 (0.2 nM) % Inh” value with BMP4 (setting [5]) was “C (showed less than 30% of inhibitory activity in 0.2 nM-addition zone and showed 30% or more of inhibitory activity in 2 nM-addition zone)”. Besides, the “aLIZA BMP7 (10 nM) % Inh” value with BMP7 (setting [6]) was “E (showed less than 30% of inhibitory activity in 100 nM-addition zone and showed 30% or more of inhibitory activity in 1,000 nM-addition zone)”.

In the case of “357 (FG[NMeF]G[Bip]GDD[Cha]A[NMeF]L[Phe(4-COOH)]CG-NH2; not fully specified (N-terminus, bridges)) [compound 357]”, the “aLISA BMP4 (0.2 nM) % inh” value in the assay with BMP4 (setting [7]) was “ND (the inhibitory activity was less than 30% at the maximum concentration evaluated)”. The “aLISA BMP7 (10 nM) % inh” value with BMP7 (setting [8]) is “D (showed less than 30% of inhibitory activity in 10 nM-addition zone and showed 30% or more of inhibitory activity in 100 nM-addition zone)”.

As to “354 (FG[NMeF]G[Bip]GDD[Cha]A[NMeF]LNCG-NH2; not fully specified (N-terminus, bridges)) [compound 354]”, in the assay with BMP4 (setting [7]), the “aLISA BMP4 (0.2 nM) % inh” value is listed as “ND (the inhibitory activity was less than 30% at the maximum concentration evaluated)”. In addition, the “aLISA BMP7 (10 nM) % inh” value with BMP7 (setting [8]) was “D (showed less than 30% of inhibitory activity in 10 nM-addition zone and showed 30% or more of inhibitory activity in 100 nM-addition zone)”.

On to “321 (ERV[Phe(4-COOH)][Cha4tH][KCOpipzaa]R[3Pal(6-Ph)][KCOpipzaa]Y[Hyp][Bph3C][4Pal][Phe(4-COOH)][Phe(4-COOH)]SCG-NH2) [compound 321]”, for which, in the assay with BMP4 (setting [9]), the “aLIZA BMP4 (0.2 nM) % inh” value was “B (showed less than 30% of inhibitory activity in 0.02 nM-addition zone and showed 30% or more of inhibitory activity in 0.2 nM-addition zone)”. Besides, the “aLIZA BMP7 (10 nM) % inh” value in the assay with BMP7 (setting [10]) is “E (showed less than 30% of inhibitory activity in 100 nM-addition zone and showed 30% or more of inhibitory activity in 1,000 nM-addition zone)”.

Consider “313 (ERV[Phe(4-COOH)][Cba][KCOpipzaa]R[3Pal(6-Ph)][KCOpipzaa]Y[Hyp][Bph3F]Y[Phe(4-COOH)][Phe(4-COOH)]SCG-NH2; not fully specified) [compound 313]”, for which, in the assay with BMP4 (setting [9]), the “aLIZA BMP4 (0.2 nM) % inh” value is “A (showed 30% or more of inhibitory activity in a zone to which the peptide was added in an amount of 0.02 nM)”. Also, in the assay with BMP7 (setting [10]), the “aLIZA BMP7 (10 nM) % inh” value is “E (showed less than 30% of inhibitory activity in 100 nM-addition zone and showed 30% or more of inhibitory activity in 1,000 nM-addition zone)”.

For “243 (ERVYVDR[3Pal(6-Ph)]SYV[Bip]Y[Phe(4-COOH)][Phe(4-COOH)]SCG-NH2) [compound 243]”, the “aLIZA BMP4 (0.2 nM) % Inh” value with BMP4 (setting [5]) is “C (showed less than 30% of inhibitory activity in 0.2 nM-addition zone and showed 30% or more of inhibitory activity in 2 nM-addition zone)”. For the same molecule, the “aLIZA BMP7 (10 nM) % Inh” value with BMP7 (setting [6]) is “E (showed less than 30% of inhibitory activity in 100 nM-addition zone and showed 30% or more of inhibitory activity in 1,000 nM-addition zone)”.

With “278 (E[KCOpipzaa]V[Phe(4-COOH)]V[KCOpipzaa]R[3Pal(6-Ph)][KCOpipzaa]Y[Hyp][Bip][4Pal][Phe(4-COOH)][Phe(4-COOH)]SCG-NH2; not fully specified) [compound 278]”, the “aLIZA BMP4 (0.2 nM) % inh” value with BMP4 (setting [1]) was “C (showed less than 30% of inhibitory activity in 0.2 nM-addition zone and showed 30% or more of inhibitory activity in 2 nM-addition zone)”. The “aLIZA BMP7 (10 nM) % inh” value in the assay with BMP7 (BMP7 10 nM stimulus, peptide conc. in assay 100, 300, 1000 nM, class symbols) was “ND (the inhibitory activity was less than 30% at the maximum concentration evaluated)”.

For the molecule “393 (FG[NMePhe(4-Me)]G[Bip]GDD[Cha]A[NMeF]LHCG-NH2; not fully specified) [compound 393]”, in the assay with BMP4 (BMP4 0.2 nM stimulus), the “aLISA BMP4 (0.2 nM) % inh” value is “A (showed less than 30% of inhibitory activity in 2 nM-peptide-addition zone and showed 30% or more of inhibitory activity in 20 nM-addition zone)”. Moreover, the “aLISA BMP7 (10 nM) % inh” value with BMP7 (BMP7 10 nM stimulus) was “D (showed less than 30% of inhibitory activity in 10 nM-addition zone and showed 30% or more of inhibitory activity in 100 nM-addition zone)”.

In the case of “109 ({CH2CO}-ERVYVDR[Bip]PY[Pro(cis-4-F)][Bip]Y[Phe(4-COOH)][Phe(4-COOH)]SC[βAla][dE]-OH; thioether N-17; not fully specified) [compound 109]”, the “aLISA BMP4” value with BMP4 (setting [3]) is “C (showed an inhibitory activity of less than 50% in 0.2 nM-addition zone and showed an inhibitory activity of 50% or more in 2 nM-addition zone were defined as B or C)”. In the assay with BMP7 (setting [4]), the “aLISA BMP7” value was “C (showed less than 50% of inhibitory activity in 10 nM-addition zone and showed 50% or more of inhibitory activity in 100 nM-addition zone)”.

As to “394 (FG[NMeF]G[Bip]GDD[Cha]A[NMePhe(4-Me)]LHCG-NH2; not fully specified) [compound 394]”, in the assay with BMP4 (BMP4 0.2 nM stimulus), the “aLISA BMP4 (0.2 nM) % inh” value is reported as “ND (the inhibitory activity was less than 30% at the maximum concentration evaluated)”. Further, the “aLISA BMP7 (10 nM) % inh” value in the assay with BMP7 (BMP7 10 nM stimulus) was “D (showed less than 30% of inhibitory activity in 10 nM-addition zone and showed 30% or more of inhibitory activity in 100 nM-addition zone)”.

Consider `CC(C)C[C@@H]1NC(=O)[C@H](Cc2ccccc2)N(C)C(=O)[C@H](CCCC(=O)O)NC(=O)[C@H](CC2CCCCC2)NC(=O)[C@H](CCC(=O)O)NC(=O)[C@H](CC(=O)O)NC(=O)CNC(=O)[C@H](Cc2ccc(-c3ccccc3)nc2)NC(=O)CNC(=O)[C@H](Cc2ccccc2)N(C)C(=O)CNC(=O)[C@H](Cc2ccccc2)NC(=O)CSC[C@@H](C(=O)NCCC(=O)N[C@H](CCC(=O)O)C(=O)O)NC(=O)[C@@H]2C[C@H](O)CN2C1=O` [SEQ ID No. 415, ClAc-F-G-MeF-G-3Py6Ph-G-D-E-Cha-Hgl-MeF-L-P4Sh-C-bA-de-OH] ({CH2CO}-FG[NMeF]G[3Pal(6-Ph)]GDE[Cha][Aad][NMeF]L[cisHyp]C[βAla][dE]-OH; thioether N-14), for which, at BMP4 (SMAD1 phosphorylation, peptide 0.02, 0.2, 2 nM), the “aLISA BMP4” value is recorded as “A (showed an inhibitory activity of 50% or more in a zone to which the peptide was added to in an amount of 0.2 nM)”. Besides, the “aLISA BMP7” value at BMP7 (10 nM BMP7, peptide 1, 10, 100 nM) was “C (showed less than 50% of inhibitory activity in 10 nM-addition zone and showed 50% or more of inhibitory activity in 100 nM-addition zone)”.

Regarding “273 (ERV[Phe(4-COOH)]VDR[3Pal(6-Ph)][KCOpipzaa]YV[Bip][4Pal][Phe(4-COOH)][Phe(4-COOH)]SCG-NH2; not fully specified) [compound 273]”, in the assay with BMP4 (setting [1]), the “aLIZA BMP4 (0.2 nM) % inh” value was “C (showed less than 30% of inhibitory activity in 0.2 nM-addition zone and showed 30% or more of inhibitory activity in 2 nM-addition zone)”. For the same molecule, the “aLIZA BMP7 (10 nM) % inh” value in the assay with BMP7 (setting [2]) was “ND (the inhibitory activity was less than 30% at the maximum concentration evaluated)”.
